Data from publication PMC8249609 (Cell Research, 2021).

T1: YFP-tagged AT1 receptor ( (human AT1 or mouse AT1a …, UniProt P30556 1-359))
T1 construct: also called AT1-YFP; Flag-tagged AT1-YFP; source: HEK293T, transfected, in cells
T1 sequence (looked up): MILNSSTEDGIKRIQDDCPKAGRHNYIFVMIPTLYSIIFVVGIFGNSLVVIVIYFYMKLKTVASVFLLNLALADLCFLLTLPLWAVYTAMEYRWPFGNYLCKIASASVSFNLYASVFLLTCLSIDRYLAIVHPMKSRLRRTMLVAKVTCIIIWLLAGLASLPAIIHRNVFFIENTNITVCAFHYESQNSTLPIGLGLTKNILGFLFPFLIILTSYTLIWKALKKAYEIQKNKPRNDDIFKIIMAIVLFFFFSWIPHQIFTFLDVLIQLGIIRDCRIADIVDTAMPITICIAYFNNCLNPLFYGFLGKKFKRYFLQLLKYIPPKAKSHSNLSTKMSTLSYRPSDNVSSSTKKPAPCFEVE

T2: MBP-fusion protein of the COMP EGF domain (mouse, UniProt Q9R0G6 84-261)
T2 construct: cartilage oligomeric matrix protein, mouse, EGF repeat domain; Vector pMAL-p5x; also called MBP-COMP-EGF; source: E. coli BL21, purified
T2 sequence (looked up): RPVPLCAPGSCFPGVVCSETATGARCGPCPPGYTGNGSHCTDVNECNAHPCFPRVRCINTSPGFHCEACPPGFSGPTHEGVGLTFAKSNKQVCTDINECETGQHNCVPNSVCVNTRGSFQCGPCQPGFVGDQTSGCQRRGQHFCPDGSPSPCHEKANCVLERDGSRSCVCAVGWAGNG

B1: mouse COMP fused with the modified Renilla luciferase at the C-terminus (natural protein)
chain: not shown
notes: cartilage oligomeric matrix protein, mouse; also called COMP-RLuc; source: HEK293T, transfected; not shown: RLuc (modified Renilla luciferase), C-terminal, kept
B2: cartilage oligomeric matrix protein with a C-terminal His-tag (COMP-His) (natural protein)
chain: not shown
notes: cartilage oligomeric matrix protein, mouse, cDNA NM_016685.2; secreted into the conditioned medium of Sf9 cells; also called purified COMP; pentameric COMP protein
B3: AT1 receptor, residues 1-318, with N-terminal Flag-tag and BRIL (Flag-BRIL-AT1) (receptor, UniProt P30556 1-318, looked up)
chain: MILNSSTEDGIKRIQDDCPKAGRHNYIFVMIPTLYSIIFVVGIFGNSLVVIVIYFYMKLKTVASVFLLNLALADLCFLLTLPLWAVYTAMEYRWPFGNYLCKIASASVSFNLYASVFLLTCLSIDRYLAIVHPMKSRLRRTMLVAKVTCIIIWLLAGLASLPAIIHRNVFFIENTNITVCAFHYESQNSTLPIGLGLTKNILGFLFPFLIILTSYTLIWKALKKAYEIQKNKPRNDDIFKIIMAIVLFFFFSWIPHQIFTFLDVLIQLGIIRDCRIADIVDTAMPITICIAYFNNCLNPLFYGFLGKKFKRYFLQLLK
notes: Order on the chain as printed: Flag-tag, BRIL, AT1; Detergent-solubilised (DDM/CHS in the running buffer); also called purified AT1 receptor; AngII type 1 receptor
B4: β-arrestin-1 fused with Renilla luciferase (natural protein, UniProt P49407 1-418, looked up)
chain: MGDKGTRVFKKASPNGKLTVYLGKRDFVDHIDLVDPVDGVVLVDPEYLKERRVYVTLTCAFRYGREDLDVLGLTFRKDLFVANVQSFPPAPEDKKPLTRLQERLIKKLGEHAYPFTFEIPPNLPCSVTLQPGPEDTGKACGVDYEVKAFCAENLEEKIHKRNSVRLVIRKVQYAPERPGPQPTAETTRQFLMSDKPLHLEASLDKEIYYHGEPISVNVHVTNNTNKTVKKIKISVRQYADICLFNTAQYKCPVAMEEADDTVAPSSTFCKVYTLTPFLANNREKRGLALDGKLKHEDTNLASSTLLREGANREILGIIVSYKVKVKLVVSRGGLLGDLASSDVAVELPFTLMHPKPKEEPPHREVPENETPVDTNLIELDTNDDDIVFEDFARQRLKGMKDDKEEEEDGTGSPQLNNR
notes: β-arrestin-1; also called β-arrestin-1-RLuc; source: HEK293T, transfected, in cells
B5: GST-fused N-terminus of mouse AT1a receptor (aa 1-27) (domain or fragment, UniProt P29754 1-27, looked up)
chain: MALNSSTEDGIKRIQDDCPRAGRHSYI
notes: also called GST-fused N-terminus of AT1a; source: purified (vector pGEX-6P-1; host not clearly stated)

Legend:
[1] = target: the molecule itself; experiment: native gel or EMSA; COMP-RLuc; 6% native PAGE without SDS and β-mercaptoethanol is the paper's method for the pentameric form of COMP; shown in Supplementary Fig. S11a
[2] = target: the molecule itself; experiment: SEC + native gel or EMSA; purified COMP; gel filtration chromatography and non-reduced native PAGE followed by western blotting; pentamer
[3] = target: B2; experiment: SPR; BiaCore 8 K; AT1 amine-coupled to a CM5 chip (~4500 RU); analyte in two-fold dilutions (COMP 0.43–110 nM), 120 s association, 200 s dissociation; 10 mM HEPES pH 7.4, 150 mM NaCl, 0.05% P20, 0.01% DDM, 0.002% CHS; 1:1 binding model; settings: both partners purified
YFP-tagged AT1 receptor [4] = target: T1, YFP-tagged AT1 receptor; experiment: FRET or BRET; as a12, cells pre-incubated with purified COMP (100 nM) for 30 min before AngII; settings: partners not purified
YFP-tagged AT1 receptor [5] = target: T1, YFP-tagged AT1 receptor; experiment: FRET or BRET; HEK293T cells co-transfected with AT1-YFP and β-arrestin-1-RLuc or β-arrestin-2-RLuc; vehicle, then increasing AngII for 5 min; BRET ratio YFP/RLuc; settings: partners not purified
[6] = target: T2, MBP-fusion protein of the COMP EGF …; experiment: pull-down; MBP fusion proteins of COMP domains and GST-fused AT1a N-terminus, equimolar, 4 °C 2 h; amylose resin; western blot with anti-GST; settings: both partners purified

Binder: B1
stoichiometry N [1]: 5

Binder: B2
stoichiometry N [2]: 5

Binder: B3
Kd [3]: 1.42 ± 0.014 nM

Binder: B4
EC50 of AngII for the recruitment (BRET), with 100 nM COMP (YFP-tagged AT1 receptor [4]): 2.16 nM | EC50 of AngII for the recruitment (BRET), vehicle (YFP-tagged AT1 receptor [5]): 0.89 nM

Binder: B5
binding result [6]: binds
